pKd: −log10 of the molar value.
How the values were obtained:
[1] = biological target: C1r enzyme (activated form of human C1r) (human) (UniProt P00736); experiment: ELISA
[2] = biological target: C1s enzyme (activated form of human C1s) (human) (UniProt P09871); experiment: ELISA
[3] = biological target: human C1 complex (C1qC1r2C1s2) (human) (UniProt P02745); experiment: ELISA
[4] = biological target: GST-ErpB (Borrelia burgdorferi strain B31); experiment: SPR
[5] = biological target: GST-ErpQ (Borrelia burgdorferi strain B31); experiment: SPR

Chain of C1s enzyme (activated form of human C1s) (human) (P09871 16-437, chain 1 of 2): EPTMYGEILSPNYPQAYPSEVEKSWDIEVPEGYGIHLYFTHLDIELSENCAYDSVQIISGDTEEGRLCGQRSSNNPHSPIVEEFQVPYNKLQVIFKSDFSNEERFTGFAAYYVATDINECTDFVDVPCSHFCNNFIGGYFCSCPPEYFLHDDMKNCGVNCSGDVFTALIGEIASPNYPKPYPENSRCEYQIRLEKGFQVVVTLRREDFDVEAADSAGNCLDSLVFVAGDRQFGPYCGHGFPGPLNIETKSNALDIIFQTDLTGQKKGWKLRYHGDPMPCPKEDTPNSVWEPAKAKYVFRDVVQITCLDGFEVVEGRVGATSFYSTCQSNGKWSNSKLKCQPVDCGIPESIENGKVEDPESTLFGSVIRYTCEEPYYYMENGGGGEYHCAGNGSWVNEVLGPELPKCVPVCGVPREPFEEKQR
Chain of C1s enzyme (activated form of human C1s) (human) (P09871 438-688, chain 2 of 2): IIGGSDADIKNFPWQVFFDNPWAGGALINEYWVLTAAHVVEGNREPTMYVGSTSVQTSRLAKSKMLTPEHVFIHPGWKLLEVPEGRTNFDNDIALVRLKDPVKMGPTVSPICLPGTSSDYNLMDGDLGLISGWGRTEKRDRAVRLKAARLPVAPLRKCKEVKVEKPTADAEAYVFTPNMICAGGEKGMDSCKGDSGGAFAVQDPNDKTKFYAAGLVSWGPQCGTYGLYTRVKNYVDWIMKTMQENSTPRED
Chain of human C1 complex (C1qC1r2C1s2) (human) (P02745 whole entry, looked up, one chain of several): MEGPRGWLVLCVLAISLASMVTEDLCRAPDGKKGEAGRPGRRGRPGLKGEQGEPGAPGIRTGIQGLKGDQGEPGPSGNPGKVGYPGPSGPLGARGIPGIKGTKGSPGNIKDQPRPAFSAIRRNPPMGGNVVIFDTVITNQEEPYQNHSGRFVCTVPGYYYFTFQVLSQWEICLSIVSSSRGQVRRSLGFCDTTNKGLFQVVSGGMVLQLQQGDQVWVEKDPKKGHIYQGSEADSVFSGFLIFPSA
Chain of C1r enzyme (activated form of human C1r) (human) (P00736 18-463, chain 1 of 2): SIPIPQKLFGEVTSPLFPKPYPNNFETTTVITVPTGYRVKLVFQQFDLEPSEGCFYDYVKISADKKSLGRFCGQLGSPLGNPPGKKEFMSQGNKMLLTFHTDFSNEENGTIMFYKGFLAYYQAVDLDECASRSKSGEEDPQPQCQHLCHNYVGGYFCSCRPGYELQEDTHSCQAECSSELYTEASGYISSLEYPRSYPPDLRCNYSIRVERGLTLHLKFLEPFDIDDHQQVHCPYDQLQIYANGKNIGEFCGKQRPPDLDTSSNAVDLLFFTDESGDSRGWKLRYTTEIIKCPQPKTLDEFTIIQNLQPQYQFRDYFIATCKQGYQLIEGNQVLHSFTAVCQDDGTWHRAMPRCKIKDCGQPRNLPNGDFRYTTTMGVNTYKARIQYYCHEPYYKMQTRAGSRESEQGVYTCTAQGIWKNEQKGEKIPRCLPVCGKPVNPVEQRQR
Chain of C1r enzyme (activated form of human C1r) (human) (P00736 464-705, chain 2 of 2): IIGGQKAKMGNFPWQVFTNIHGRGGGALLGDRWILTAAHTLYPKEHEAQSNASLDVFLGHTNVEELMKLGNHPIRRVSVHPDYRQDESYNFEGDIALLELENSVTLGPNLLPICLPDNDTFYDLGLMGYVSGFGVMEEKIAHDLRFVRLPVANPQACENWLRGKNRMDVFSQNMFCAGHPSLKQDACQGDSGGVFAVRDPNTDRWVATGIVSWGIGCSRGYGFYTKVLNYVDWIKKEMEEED
Chain of human C1 complex (C1qC1r2C1s2) (P02746 whole entry, looked up): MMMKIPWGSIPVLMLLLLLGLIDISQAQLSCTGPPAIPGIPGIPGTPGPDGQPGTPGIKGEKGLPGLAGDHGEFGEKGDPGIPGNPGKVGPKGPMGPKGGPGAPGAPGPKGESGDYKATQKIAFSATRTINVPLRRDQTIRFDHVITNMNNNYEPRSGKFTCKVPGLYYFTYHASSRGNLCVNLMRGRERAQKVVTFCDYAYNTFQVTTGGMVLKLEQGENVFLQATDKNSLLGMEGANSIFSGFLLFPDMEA
Chain of human C1 complex (C1qC1r2C1s2) (P02747 whole entry, looked up): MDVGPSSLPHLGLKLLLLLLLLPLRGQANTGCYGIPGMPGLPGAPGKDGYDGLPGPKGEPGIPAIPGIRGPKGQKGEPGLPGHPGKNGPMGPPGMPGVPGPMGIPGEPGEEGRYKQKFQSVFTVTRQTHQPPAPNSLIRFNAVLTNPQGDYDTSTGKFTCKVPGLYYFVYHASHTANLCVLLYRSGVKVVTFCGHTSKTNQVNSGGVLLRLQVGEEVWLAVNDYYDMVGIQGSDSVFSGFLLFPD
Chain of human C1 complex (C1qC1r2C1s2) (P02745 whole entry, looked up): as the sequence (P02745 whole entry, looked up, one chain of several) above

Substance	pKd [1]	pKd [2]	pKd [3]	pKd [4]	pKd [5]
GST-ErpB (natural protein)	7.39	8.17	8.47	–	–
C1s proenzyme (human)	–	–	–	6.57	6.77
human C1 complex (C1qC1r2C1s2) (from UniProt P02745 23-245; P02746 28-253; P02747 29-245)	–	–	–	8.25	–
GST-ErpQ (natural protein)	7.96	8.33	8.42	–	–

From article doi:10.1101/2021.09.23.461563
